The text below walks through data of publication PMC9436306 (Proceedings of the National Academy of Sciences of the …, 2022).

For test [1], the target named is T1, ESCRT-I complex (TSG101, VPS28, VPS37B, MVB12A), Cy3-labeled (human, UniProt Q99816 1-390; Q9UK41 1-221; Q9H9H4 1-285; Q96EY5 1-273).
T1 construct: TSG101, subunit of human ESCRT-I; VPS28, subunit of human ESCRT-I; VPS37B, subunit of human ESCRT-I; MVB12A, subunit of human ESCRT-I; Labeled with sulpho-Cy3 maleimide on native surface-exposed cysteines; It calls human ESCRT-I a soluble heterotetramer; also called ESCRT-I (Cy3); source: HEK293 cells, purified (StrepTactin Sepharose, gel filtration); copies: + + +
T1 sequence (Q99816 whole entry, chain 1 of 4, other chains not shown): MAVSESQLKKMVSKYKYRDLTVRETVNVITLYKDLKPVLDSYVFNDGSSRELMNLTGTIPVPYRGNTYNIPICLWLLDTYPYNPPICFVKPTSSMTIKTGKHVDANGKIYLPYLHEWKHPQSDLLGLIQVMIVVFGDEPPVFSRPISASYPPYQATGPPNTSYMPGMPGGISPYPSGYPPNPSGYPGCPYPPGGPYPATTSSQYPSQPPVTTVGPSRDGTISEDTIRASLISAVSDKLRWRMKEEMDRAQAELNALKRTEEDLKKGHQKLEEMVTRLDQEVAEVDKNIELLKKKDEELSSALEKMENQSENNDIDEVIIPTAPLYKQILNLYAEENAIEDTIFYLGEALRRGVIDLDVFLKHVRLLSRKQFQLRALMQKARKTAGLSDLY
T1 sequence (Q9UK41 whole entry, chain 2 of 4, other chains not shown): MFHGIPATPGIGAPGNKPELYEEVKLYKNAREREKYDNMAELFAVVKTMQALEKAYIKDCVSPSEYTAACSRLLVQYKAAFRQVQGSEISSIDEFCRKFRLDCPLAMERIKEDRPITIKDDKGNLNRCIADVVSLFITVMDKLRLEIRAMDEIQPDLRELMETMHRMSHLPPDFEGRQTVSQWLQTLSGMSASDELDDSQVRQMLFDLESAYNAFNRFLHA
T1 sequence (Q9H9H4 whole entry, chain 3 of 4, other chains not shown): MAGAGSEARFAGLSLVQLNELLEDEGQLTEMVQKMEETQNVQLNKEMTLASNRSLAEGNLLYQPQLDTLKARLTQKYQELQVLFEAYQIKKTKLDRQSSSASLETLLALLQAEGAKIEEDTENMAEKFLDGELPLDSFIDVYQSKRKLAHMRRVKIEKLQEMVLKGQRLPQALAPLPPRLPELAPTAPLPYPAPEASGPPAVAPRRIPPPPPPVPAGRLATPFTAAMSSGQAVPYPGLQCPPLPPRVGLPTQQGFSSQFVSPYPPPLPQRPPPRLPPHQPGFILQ
As to the kind of experiment: recruitment to giant unilamellar vesicles (GUVs), confocal fluorescence microscopy; ESCRT-I/II pathway: ALG-2 200 nM, ESCRT-I (Cy3) 50 nM, with or without ESCRT-II 200 nM and CHMP6 (Atto 488) 400 nM, incubated 15 min in reaction buffer, then 30% DOPS GUVs added and imaged after 15 min; ESCRT-I kept at a concentration at which it did not bind GUVs on its own. The note with it: both partners purified.

Test [2] deals with T2, ALIX, full-length, Cy3-labeled (human, UniProt Q8WUM4 1-868, sulpho-Cy3 maleimide on native surface-exposed cysteines).
T2 construct: ALIX (PDCD6IP), ESCRT accessory protein with Bro1 domain, V domain and proline-rich domain; also called ALIX (Cy3); source: HEK293 cells, purified (StrepTactin Sepharose, gel filtration)
T2 sequence (looked up): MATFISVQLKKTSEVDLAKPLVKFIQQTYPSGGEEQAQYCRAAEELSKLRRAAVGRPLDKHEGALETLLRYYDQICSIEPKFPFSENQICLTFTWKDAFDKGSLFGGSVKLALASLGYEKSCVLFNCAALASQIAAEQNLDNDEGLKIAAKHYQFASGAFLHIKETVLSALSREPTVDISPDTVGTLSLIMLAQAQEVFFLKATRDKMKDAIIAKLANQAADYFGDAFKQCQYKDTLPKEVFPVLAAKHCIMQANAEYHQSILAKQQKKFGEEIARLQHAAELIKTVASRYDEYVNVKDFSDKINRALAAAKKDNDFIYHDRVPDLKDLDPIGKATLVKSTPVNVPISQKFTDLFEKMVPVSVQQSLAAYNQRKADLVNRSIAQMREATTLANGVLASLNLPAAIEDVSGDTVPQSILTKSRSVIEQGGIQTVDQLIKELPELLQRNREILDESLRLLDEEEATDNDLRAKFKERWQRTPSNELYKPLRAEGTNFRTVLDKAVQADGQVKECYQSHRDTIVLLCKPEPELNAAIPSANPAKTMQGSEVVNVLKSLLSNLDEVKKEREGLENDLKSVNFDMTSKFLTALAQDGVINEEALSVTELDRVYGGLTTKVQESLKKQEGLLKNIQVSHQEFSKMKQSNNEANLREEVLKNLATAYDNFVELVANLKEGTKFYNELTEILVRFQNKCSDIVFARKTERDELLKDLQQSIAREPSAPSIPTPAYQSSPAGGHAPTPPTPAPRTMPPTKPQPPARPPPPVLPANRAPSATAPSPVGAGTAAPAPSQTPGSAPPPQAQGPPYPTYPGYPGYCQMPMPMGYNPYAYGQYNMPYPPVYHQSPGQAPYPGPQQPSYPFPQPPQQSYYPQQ
Nature of the test: recruitment to giant unilamellar vesicles (GUVs), confocal fluorescence microscopy; ALIX pathway: ALG-2 200 nM, ALIX 100 nM, with or without CHMP4B 10 nM, incubated 15 min in reaction buffer (25 mM Hepes pH 7.4, 125 mM NaCl, 0.2 mM TCEP), then added to 30% DOPS GUVs and imaged after 15 min at room temperature; read-out: puncta on the GUV periphery and their colocalization. The note with it: both partners purified.

B1: ALG-2, fluorescently labeled (Atto 488) via A78C (natural protein, UniProt O75340 1-191, looked up)
chain: MAAYSYRPGPGAGPGPAAGAALPDQSFLWNVFQRVDKDRSGVISDTELQQALSNGTWTPFNPVTVRSIISMFDRENKCGVNFSEFTGVWKYITDWQNVFRTYDRDNSGMIDKNELKQALSGFGYRLSDQFHDILIRKFDRQGRGQIAFDDFIQGCIVLQRLTDIFRRYDTDQDGWIQVSYEQYLSMVFSIV
modifications: Atto 488 maleimide on the cysteine of A78C (25% labeling efficiency)
notes: also called ALG-2 (Atto 488); labeled ALG-2; source: E. coli BL21 (DE3), purified (Ni-NTA, gel filtration, anion exchange, gel filtration)
In the case of B1, the binding result in test [1] and in test [2] was “binds” throughout.
